Data reported in patent US20050209548A1, “Electroporation-mediated intravascular delivery” (priority 2004, published 2005).

Legend:
[1] = Molecular Probe, Inc.; cited from earlier work
[2] = rabbit, in vivo
Description: This catheter was used in the following experiment. Three rabbits weighing 4 Kg were anesthetized with xylazine (0.1 ml/kg) and ketamine (0.5 ml/1 g i.m.). General anesthesia was maintained with α-chloralose (30 mg/Kg. i.v.). […] A femoral artery in the leg on one side of the rabbit was exposed. A 5F sheath was introduced and the catheter was pushed under fluoroscopic guidance to the right or left carotid artery. […] Radiocontrast fluid was infused (panel b) allowing confirmation of the catheter position, the patient artery, the balloon and the built-in radiopaque marker, as well as presence of the dye in the side branches. After balloon inflation, (panel c) 1 ml of fluoresceinated heparin (concentration 1 mg dissolved in 2 ml: biological activity of heparin as per manufacturer: 167 U) was infused between the occluded segment via the drug port and the artery pulsed immediately with the balloons in the inflated condition. Initially, field parameters tested were ˜60V and four pulses each of ˜600 μs pulse length. […] In a subsequent experiment, voltage and pulse length were changed to 57V and 22 ms, respectively. As before, four pulses were delivered from ECM 600 pulse exponential generator. […] In addition, fluorescence due to collagen and elastin was also present.

[3] = rabbit, in vivo; remark: listed apart in the source
Description: Experiments were performed in 12 New Zealand white rabbits of either sex (2.5-3.4 kg) preanesthetized with xylazine (2 mg.kg^−1) and ketamine (50 mg.kg^−1) intramuscularly and an injection of alphachloralose (30 mg.kg^−1) intraveneously through an ear vein. A supplemental dose of 10 mg.kg^−1 chloralose was given every hour. The anesthetic state was maintained such that the toe-pinching reflex and corneal reflexes were absent.
Animals were placed supine and strapped on the surgical table. The trachea was intubated to allow spontaneous breathing of ambient air. Electrocardiogram (EKG) of the animal was obtained by using Lead II in differential mode. End-tidal CO2 tension was monitored by a CO2 analyzer (Datex, Puritan-Bennett). Body temperature was kept at the 38-38.5 °C range by radiant heating.
A longitudinal incision in the cervical region was made in the rabbit to expose the common carotid arteries on both sides. Approximately 6 cm in length of carotid artery on each side was isolated from the surrounding tissue and vagosympathetic nerve trunk. The caudal end of the carotid artery on one side was transiently occluded with a vascular clip at the junction between the neck and chest. A small incision was then made at the rostral end of the artery (just below transversus vein) to push an electroporator catheter (FIG. 1) through this incision. […]
Lead II EKG Nvas differentially amplified and the output was continuously monitored on an osciloscope (Tektronix) and recorded on a Gould TA-2000 thermal-array recorder for evaluation. […]
Arterial segments were subsequently freeze sectioned (10 micron) transversely. Microscopic slides containing arterial sections were observed under a Zeiss confocal laser (argon-krypton) scan microscope (LSM 410 Invert), (excitation at 495 nm and emission at 515 nm) to obtain video image (magnification 40 times) of fluorescence. Subsequently, control and test samples were compared by analyzing fluorescence intensity by Line Intensity Scan at different depths of the arterial wall using commercially obtained software (Image 1: Universal Imaging Corp.). […]

[4] = pig, in vivo; cited from earlier work

Which results are given for fluoresceinated heparin [F-heparin]?
activity [1]: 167 unit/mg; penetration and uptake after autofluorescence correction and subtraction of control artery fluorescence [2]: deep penetration and uptake

For heparin, which “duration of sustained delivery in vessel” value [3] is on record?
The value was “at least 12 hours”.

And the “location in the vessel wall” value [3]?
The value was “mostly present in the media but also in the intima”.

What about the “washout of local delivery from vessel” value [3] of the same substance?
Its value is “completely washes out in two hours”.

With hirudin as the substance, how does the “drug washed out of the vessel” value [4] read?
The value was 80%.

And the “level in vessel compared with passive delivery” value [4]?
The value was “the level is the same as for the passive delivery”.
